# Results published in IntAct's records for PubMed 10026153.
# B1: Tyrosine-protein kinase CSK (Homo sapiens), P41240 (parent)
# chain: MSAIQAAWPSGTECIAKYNFHGTAEQDLPFCKGDVLTIVAVTKDPNWYKAKNKVGREGIIPANYVQKREGVKAGTKLSLMPWFHGKITREQAERLLYPPETGLFLVRESTNYPGDYTLCVSCDGKVEHYRIMYHASKLSIDEEVYFENLMQLVEHYTSDADGLCTRLIKPKVMEGTVAAQDEFYRSGWALNMKELKLLQTIGKGEFGDVMLGDYRGNKVAVKCIKNDATAQAFLAEASVMTQLRHSNLVQLLGVIVEEKGGLYIVTEYMAKGSLVDYLRSRGRSVLGGDCLLKFSLDVCEAMEYLEGNNFVHRDLAARNVLVSEDNVAKVSDFGLTKEASSTQDTGKLPVKWTAPEALREKKFSTKSDVWSFGILLWEIYSFGRVPYPRIPLKDVVPRVEKGYKMDAPDGCPPAVYEVMKNCWHLDAAMRPSFLQLREQLEHIKTHELHL
# Variants of: B1
# Conditions: with igf1r_human IGF1R
row,Variant,effect of a mutation on the interaction
1,S109C,disrupting interaction strength
